{
  "source": "paper PMC3024538",
  "target": "HLA A*0201 α chain with β2m, recombinant, biotinylated",
  "experiment": "SPR",
  "data": [
    {"substance": "Melan-A/MART-1 26-35 peptide […]", "values": [
      {"measurement": "half-life of the pMHCI complex", "value": 6, "unit": "h"}
    ]}
  ]
}
